The results in this text go back to the supplement of paper PMC5998384.

Data set [1] concerns HeLa Kyoto. Briefly: thermal stability score vs G1/S (z-score of summed log2 fold changes over temperatures); higher = more thermally stable than in G1/S.
In data set [2] the test system is HeLa Kyoto. Briefly: solubility in G1/S (NP-40 vs SDS abundance) (log2 ratio); higher = more soluble. The note with it: cell cycle stage: G1/S.
Data set [3] deals with HeLa Kyoto. Briefly: melting temperature (median over replicates), in situ; higher = more thermally stable.
The subject of data set [4] is HeLa Kyoto. The experiment in a line: solubility change mitosis vs G1/S (difference of NP-40 vs SDS log2 ratios) (log2 ratio difference); higher = more soluble in mitosis.
[5] abbreviates: cell cycle stage: early G1 (4.5 h after nocodazole release).
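Throughout, for melting temperature (median over replicates), in situ: HeLa Kyoto cells synchronized by double thymidine or nocodazole block, proteins quantified by TMT10plex mass spectrometry, three independent biological replicates.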
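Throughout, for solubility change mitosis vs G1/S (difference of NP-40 vs SDS log2 ratios): synchronized HeLa Kyoto cells (double thymidine block for G1/S, nocodazole release for mitosis), protein amounts in NP-40 versus SDS lysates quantified by mass spectrometry, three biological replicates.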
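Throughout, for solubility in G1/S (NP-40 vs SDS abundance): HeLa Kyoto cells arrested at G1/S by double thymidine block, proteins quantified by TMT10plex mass spectrometry in mild NP-40 versus SDS extracts, three biological replicates.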
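Throughout, for thermal stability score vs G1/S (z-score of summed log2 fold changes over temperatures): synchronized HeLa Kyoto cells, proteins quantified by TMT10plex mass spectrometry, three biological replicates, mitosis taken 0.5 h after nocodazole release, G1/S directly after double thymidine block.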

As to “MAATRSPTRARERERSGAPAAGSDQVHSWMLATSQALDTVWRMAKGFVMLAVSFLVAAICYFRRLHLYSGHKLKWWIGYLQRKFKRNLSVEAEVDLLSYCAREWKGETPRNKLMRKAYEELFWRHHIKCVRQVRRDNYDALRSVLFQIFSQGISFPSWMKEKDIVKLPEKLLFSQGCNWIQQYSFGPEKYTGSNVFGKLRKYVELLKTQWTEFNGIRDYHKRGSMCNTLFSDAILEYKLYEALKFIMLYQVTEVYEQMKTKKVIPSLFRLLFSRETSSDPLSFMMNHLNSVGDTCGLEQIDMFILGYSLEVKIKVFRLFKFNSRDFEVCYPEEPLRDWPEISLLTENDRHYHIPVF [FAM105A]”, the thermal stability score with HeLa Kyoto [1] (setting [5]) was -0.702; in the data set on HeLa Kyoto [1] (cell cycle stage: mitosis), -1.45. Also, the “solubility in G1/S (log2)” value with HeLa Kyoto [2] was -0.437. For the same sequence, the melting temperature with HeLa Kyoto [3] (cell cycle stage: mitosis) was found to be 52.7 °C. The “solubility change mitosis (log2)” value with HeLa Kyoto [4] was -0.0882.
Regarding “MAATSLMSALAARLLQPAHSCSLRLRPFHLAAVRNEAVVISGRKLAQQIKQEVRQEVEEWVASGNKRPHLSVILVGENPASHSYVLNKTRAAAVVGINSETIMKPASISEEELLNLINKLNNDDNVDGLLVQLPLPEHIDERRICNAVSPDKDVDGFHVINVGRMCLDQYSMLPATPWGVWEIIKRTGIPTLGKNVVVAGRSKNVGMPIAMLLHTDGAHERPGGDATVTISHRYTPKEQLKKHTILADIVISAAGIPNLITADMIKEGAAVIDVGINRVHDPVTAKPKLVGDVDFEGVRQKAGYITPVPGGVGPMTVAMLMKNTIIAAKKVLRLEEREVLKSKELGVATN [MTHFD2]”, the thermal stability score in the data set with HeLa Kyoto [1] (setting [5]) was 0.31; with HeLa Kyoto [1] (cell cycle stage: mitosis), -0.889. Further, in the data set on HeLa Kyoto [2], the “solubility in G1/S (log2)” value came to 0.505. Besides, the melting temperature with HeLa Kyoto [3] (cell cycle stage: G1/S) was 52.5 °C; in the data set on HeLa Kyoto [3] (cell cycle stage: mitosis), 53.3 °C. Moreover, the “solubility change mitosis (log2)” value in the data set with HeLa Kyoto [4] was -0.0584.
As for “MAAVAALQLGLRAAGLGRAPASAAWRSVLRVSPRPGVAWRPSRCGSSAAEASATKAEDDSFLQWVLLLIPVTAFGLGTWQVQRRKWKLNLIAELESRVLAEPVPLPADPMELKNLEYRPVKVRGCFDHSKELYMMPRTMVDPVREAREGGLISSSTQSGAYVVTPFHCTDLGVTILVNRGFVPRKKVNPETRQKGQIEGEVDLIGMVRLTETRQPFVPENNPERNHWHYRDLEAMARITGAEPIFIDANFQSTVPGGPIGGQTRVTLRNEHLQYIVTWYGLSAATSYLWFKKFLRGTPGV [SURF1]”, the thermal stability score in the data set with HeLa Kyoto [1] (setting [5]) was -0.638; in the data set on HeLa Kyoto [1] (cell cycle stage: mitosis), -0.542. Further, the “solubility in G1/S (log2)” value in the data set with HeLa Kyoto [2] was 0.298. In addition, the melting temperature in the data set with HeLa Kyoto [3] (cell cycle stage: G1/S) and with HeLa Kyoto [3] (cell cycle stage: mitosis) was 52.2 °C in each case. Further, the “solubility change mitosis (log2)” value with HeLa Kyoto [4] is -0.105.
“MAAVAATAAAKGNGGGGGRAGAGDASGTRKKKGPGPLATAYLVIYNVVMTAGWLVIAVGLVRAYLAKGSYHSLYYSIEKPLKFFQTGALLEILHCAIGIVPSSVVLTSFQVMSRVFLIWAVTHSVKEVQSEDSVLLFVIAWTITEIIRYSFYTFSLLNHLPYLIKWARYTLFIVLYPMGVSGELLTIYAALPFVRQAGLYSISLPNKYNFSFDYYAFLILIMISYIPIFPQLYFHMIHQRRKILSHTEEHKKFE [HACD2]”: the thermal stability score with HeLa Kyoto [1] (setting [5]) was 0.894; in the data set on HeLa Kyoto [1] (cell cycle stage: mitosis) it was -0.449. For the same sequence, the “solubility in G1/S (log2)” value in the data set on HeLa Kyoto [2] was -0.368. Further, the melting temperature in the data set on HeLa Kyoto [3] (cell cycle stage: G1/S) turned out to be 54.2 °C; with HeLa Kyoto [3] (cell cycle stage: mitosis), 55.4 °C. For the same sequence, the “solubility change mitosis (log2)” value in the data set with HeLa Kyoto [4] amounted to 0.15.
For the sequence “MAAVDSFYLLYREIARSCNCYMEALALVGAWYTARKSITVICDFYSLIRLHFIPRLGSRADLIKQYGRWAVVSGATDGIGKAYAEELASRGLNIILISRNEEKLQVVAKDIADTYKVETDIIVADFSSGREIYLPIREALKDKDVGILVNNVGVFYPYPQYFTQLSEDKLWDIINVNIAAASLMVHVVLPGMVERKKGAIVTISSGSCCKPTPQLAAFSASKAYLDHFSRALQYEYASKGIFVQSLIPFYVATSMTAPSNFLHRCSWLVPSPKVYAHHAVSTLGISKRTTGYWSHSIQFLFAQYMPEWLWVWGANILNRSLRKEALSCTA [HSDL1]”, the thermal stability score in the data set on HeLa Kyoto [1] (setting [5]) was -1.62; with HeLa Kyoto [1] (cell cycle stage: mitosis) it was -2.08. Besides, the “solubility in G1/S (log2)” value in the data set with HeLa Kyoto [2] was -0.127. The results for the melting temperature in the data set on HeLa Kyoto [3] (cell cycle stage: G1/S) and in the data set on HeLa Kyoto [3] (cell cycle stage: mitosis) were 57.5 °C and 54.3 °C, respectively. For the same sequence, in the data set with HeLa Kyoto [4], the “solubility change mitosis (log2)” value is -0.155.
Take “MAAVKEPLEFHAKRPWRPEEAVEDPDEEDEDNTSEAENGFSLEEVLRLGGTKQDYLMLATLDENEEVIDGGKKGAIDDLQQGELEAFIQNLNLAKYTKASLVEEDEPAEKENSSKKEVKIPKINNKNTAESQRTSVNKVKNKNRPEPHSDENGSTTPKVKKDKQNIFEFFERQTLLLRPGGKWYDLEYSNEYSLKPQPQDVVSKYKTLAQKLYQHEINLFKSKTNSQKGASSTWMKAIVSSGTLGDRMAAMILLIQDDAVHTLQFVETLVNLVKKKGSKQQCLMALDTFKELLITDLLPDNRKLRIFSQRPFDKLEQLSSGNKDSRDRRLILWYFEHQLKHLVAEFVQVLETLSHDTLVTTKTRALTVAHELLCNKPEEEKALLVQVVNKLGDPQNRIATKASHLLETLLCKHPNMKGVVSGEVERLLFRSNISSKAQYYAICFLNQMALSHEESELANKLITVYFCFFRTCVKKKDVESKMLSALLTGVNRAYPYSQTGDDKVREQIDTLFKVLHIVNFNTSVQALMLLFQVMNSQQTISDRYYTALYRKMLDPGLMTCSKQAMFLNLVYKSLKADIVLRRVKAFVKRLLQVTCQQMPPFICGALYLVSEILKAKPGLRSQLDDHPESDDEENFIDANDDEDMEKFTDADKETEIVKKLETEETVPETDVETKKPEVASWVHFDNLKGGKQLNKYDPFSRNPLFCGAENTSLWELKKLSVHFHPSVALFAKTILQGNYIQYSGDPLQDFTLMRFLDRFVYRNPKPHKGKENTDSVVMQPKRKHFIKDIRHLPVNSKEFLAKEESQIPVDEVFFHRYYKKVAVKEKQKRDADEESIEDVDDEEFEELIDTFEDDNCFSSGKDDMDFAGNVKKRTKGAKDNTLDEDSEGSDDELGNLDDDEVSLGSMDDEEFAEVDEDGGTFMDVLDDESESVPELEVHSKVSTKKSKRKGTDDFDFAGSFQGPRKKKRNLNDSSLFVSAEEFGHLLDENMGSKFDNIGMNAMANKDNASLKQLRWEAERDDWLHNRDAKSIIKKKKHFKKKRIKTTQKTKKQRK [CEBPZ]”: the thermal stability score in the data set with HeLa Kyoto [1] (setting [5]) stood at 1.59; with HeLa Kyoto [1] (cell cycle stage: mitosis), 1.76. In the data set with HeLa Kyoto [2], the “solubility in G1/S (log2)” value was -1.9. Further, the melting temperature with HeLa Kyoto [3] (cell cycle stage: G1/S) came to 49.8 °C; in the data set on HeLa Kyoto [3] (cell cycle stage: mitosis), 50.1 °C. In the data set with HeLa Kyoto [4], the “solubility change mitosis (log2)” value came to 1.14.
For “MAAVQMDPELAKRLFFEGATVVILNMPKGTEFGIDYNSWEVGPKFRGVKMIPPGIHFLHYSSVDKANPKEVGPRMGFFLSLHQRGLTVLRWSTLREEVDLSPAPESEVEAMRANLQELDQFLGPYPYATLKKWISLTNFISEATVEKLQPENRQICAFSDVLPVLSMKHTKDRVGQNLPRCGIECKSYQEGLARLPEMKPRAGTEIRFSELPTQMFPEGATPAEITKHSMDLSYALETVLNKQFPSSPQDVLGELQFAFVCFLLGNVYEAFEHWKRLLNLLCRSEAAMMKHHTLYINLISILYHQLGEIPADFFVDIVSQDNFLTSTLQVFFSSACSIAVDATLRKKAEKFQAHLTKKFRWDFAAEPEDCAPVVVELPEGIEMG [AAR2]”, the thermal stability score in the data set with HeLa Kyoto [1] (setting [5]) worked out at 0.316; in the data set on HeLa Kyoto [1] (cell cycle stage: mitosis), 1.07. Also, in the data set with HeLa Kyoto [2], the “solubility in G1/S (log2)” value stood at 0.0362. Moreover, the melting temperature with HeLa Kyoto [3] (cell cycle stage: G1/S) turned out to be 50.2 °C; in the data set with HeLa Kyoto [3] (cell cycle stage: mitosis), 50.4 °C. Also, the “solubility change mitosis (log2)” value with HeLa Kyoto [4] is -0.266.
